Measurements: patent publication US6355256B1, “Compositions containing a p53 derived protein or peptide, an adjuvant, and interleukin-12 and uses thereof” (Ludwig Institute for Cancer Research, priority 1994, dated 2002)
“Also recorded” adds a separate entry of the source. No end group written: not given here.

B1: IL-12: the cytokine interleukin-12 (protein, UniProt P29459 23-219; P29460 23-328, looked up)
Interleukin-12 subunit alpha: RNLPVATPDPGMFPCLHHSQNLLRAVSNMLQKARQTLEFYPCTSEEIDHEDITKDKTSTVEACLPLELTKNESCLNSRETSFITNGSCLASRKTSFMMALCLSSIYEDLKMYQVEFKTMNAKLLMDPKRQIFLDQNMLAVIDELMQALNFNSETVPQKSSLEEPDFYKTKIKLCILLHAFRIRAVTIDRVMSYLNAS
Interleukin-12 subunit beta: IWELKKDVYVVELDWYPDAPGEMVVLTCDTPEEDGITWTLDQSSEVLGSGKTLTIQVKEFGDAGQYTCHKGGEVLSHSLLLLHKKEDGIWSTDILKDQKEPKNKTFLRCEAKNYSGRFTCWWLTTISTDLTFSVKSSRGSSDPQGVTCGAATLSAERVRGDNKEYEYSVECQEDSACPAAEESLPIEVMVDAVHKLKYENYTSSFFIRDIIKPDPPKNLQLKPLKNSRQVEVSWEYPDTWSTPHSYFSLTFCVQVQGKSKREKKDRVFTDKTSATVICRKNASISVRAQDRYYSSSWSEWASVPCS

How the values were obtained:
[1] = test system: P1-HTR cells pulsed with peptide; assay: Generation of peptide-specific CTLs after immunization with peptide, adjuvant and IL-12 (51Cr release assay); format: cell-based, BALB/C mice
[2] = test system: Meth A sarcoma; assay: Suppression of growth of established Meth A tumors by peptide in adjuvant plus low dose IL-12; format: in vivo, BALB/C mice; conditions: for suppression of tumor growth: peptide in QS-21 or QS-21 alone at days 7 and 14 after Meth A challenge, IL-12 1 ng, 4 times a week for two weeks from day 7
Procedure: As with the prior experiments, female BALB/C mice were injected with 5×10^4 Meth A cells at day 0. The mice received two injections of the mutant peptide in QS-21, the wild type peptide in QS-21, or QS-21 alone in the same manner described in Example 3, at weekly intervals. At day 7, the mice began receiving injections of 1 ng of IL-12 (4 times a week, for two weeks).
FIG. 4A resulted from QS-21 plus the mutant peptide followed by injections of IL-12. FIG. 4B resulted from QS-21 plus peptide, followed by injections with IL-12. FIG. 4C resulted from QS-21 alone followed by injections of IL-12.

[3] = test system: Meth A sarcoma; assay: Anti-tumor effect of IL-12 on established Meth A sarcoma in mice (tumor diameter); format: in vivo, BALB/C mice
Procedure: The in vivo model employed used the transplantable, methylcholanthrene-induced sarcoma “Meth A.” This is a sarcoma of BALB/C (murine) origin, passaged as an ascitic tumor. See Old, et al, Ann. N.Y. Acad. Sci 101:80-106 (1962), incorporated by reference in its entirety.
BALB/C female mice were injected intradermally with 5×10^4 Meth A cells on day 0. Seven days later, a treatment regime began, wherein the animals received doses of IL-12, 4 times a week. Control animals received no IL-12. The remaining animals received 1 ng, 10 ng, 100 ng, or 500 ng of IL-12 in each dose, administered by intraperitoneal injection.
The effect of the IL-12 on the induced tumors was observed by measuring the diameter of the tumors at the end of the treatment period. FIGS. 1A, 1B, 1C, 1D and 1E show this. The panels show results with doses of 0 ng, 1 ng, 10 ng, 100 ng, and 500 ng, respectively.
The effect of the IL-12 was abolished by administering monoclonal antibodies against CD8 molecules, but was not affected via administration of anti-CD4 mAbs.

[4] = test system: Meth A sarcoma; assay: Timing of IL-12 administration relative to Meth A challenge; format: in vivo, BALB/C mice; conditions: 100 ng IL-12 at day -14, day 0 or day 7 relative to Meth A challenge
Procedure: The importance of timing in the administration of IL-12 was then studied. In these experiments, female BALB/C mice were again injected with 5×10^4 Meth A cells, as in Example 1 (day 0). Injections of 100 ng IL-12 were administered at day “−14” (i.e., 14 days before challenge with the tumor cells), day 0, or day 7 (i.e., 7 days after challenge) as in Example 1.

| Molecule | CTLs elicited following immunization ([1]; 100 μg peptide twice at weekly intervals, regardless of the adjuvant (QS-21 or IFA) or treatment with IL-12) | suppression of tumor growth [2] | anti-tumor effect (diameter of the tumors at the end of the treatment period) ([3]; IL-12 1, 10, 100 or 500 ng i.p., 4 times a week from day 7 after 5×10^4 Meth A cells intradermally) | effect of the IL-12 on tumors when anti-CD4 mAbs are administered ([3]; with anti-CD4 mAbs) | effect of the IL-12 on tumors when monoclonal antibodies against CD8 are administered ([3]; with anti-CD8 mAbs) | effectiveness by timing of administration [4] | optimal dose of IL-12 for the generation of CTLs ([1]; IL-12 0.1, 1, 10 or 100 ng, four times over two weeks, with peptide in QS-21 or IFA) [ng] | effect of higher doses of IL-12 on generation of CTLs ([1]; IL-12 doses above 1 ng, with peptide in QS-21 or IFA) | stimulation of an immune response when used alone ([2]; each component alone, summary of the examples) |
| --- | --- | --- | --- | --- | --- | --- | --- | --- | --- |
| KYMCNSSCM (cysteine pairing not given here) [wild type peptide, wild type counterpart of peptide 234 CM] | No CTLs were elicited | did not lead to suppression of tumor growth | – | – | – | – | – | – | – |
| B1 | – | strong suppression of tumor growth; also recorded: growth suppressive effect | dose dependent anti-tumor effect | not affected | abolished | most effective after the tumor had become established; also recorded: particularly effective after tumors have already formed | 1 | suppressive effect | none |
